Assay results as given in patent US20220267421A1 (INVOX PHARMA, published 2022).

Experiments:
[1] = target: T1, cell surface human mesothelin (MSLN) (human, UniProt Q13421 296-598); test: flow cytometry, NCI-H226 cells + 20 nM soluble MSLN
T1 construct: whole, on cells; also called cell surface MSLN
Protocol: (§1) Cells were centrifuged at 1200 rpm for 3 min and resuspended in ice cold FACS buffer made up of DPBS (Life Technologies, 14190169) and 1% BSA (Sigma-Aldrich, A7906) at 2×10⁶ cells/ml and 50 μl per well was seeded in a 96-well V-bottom plate (Costar, 3894). All mAbs tested were diluted in FACS buffer in 120 μl at a concentration range of 0.01-200 nM (4-fold dilutions). The NCI-H226 cells were then centrifuged, supernatant removed and cells resuspended in 100 μl of each mAb dilution and incubated at 4° C. for 45 min. Cells were washed twice by centrifugation with 150 μl FACS buffer, resuspended in 100 μl containing goat anti-human IgG (γ-chain specific) F(ab′)2 fragment-R-Phycoerythrin antibody (Sigma, P8047) diluted 1:1000 in FACS buffer and incubated at 4° C. for 45 min. The cells were washed once with 150 μl FACS buffer and then with 150 μl DPBS, resuspended in 150 μl DPBS containing DAPI (Biotium, 40043) at 1:10.000 and read on the BDCantoll or iQue (Intellicyt). Data was analysed using FlowJo v10 to determine the signal geometric mean for PE for live cells in each well.
(§2) Cell binding assays using OVCAR-3 cells were performed similarly to the assays described in section 2.4. The effect of the presence of soluble MSLN was tested by pre-incubating the antibodies in the presence or absence of soluble MSLN before mixing with cells and determining if the pre-incubation affected binding to MSLN on the cell surface. […] 60 μl from each well was then added to either FACS buffer alone or to FACS buffer containing 60 μl of 40 nM recombinant hMSLN (R&D systems, 3265-MS-050) (to give a final concentration of 20 nM hMSLN) and pre-incubated at room temperature for 1 hour before 100 μl was added to the cells. Bound antibody was detected using goat anti-human anti-Fcγ Alexa-Fluor 488 (Jackson Immunoresearch, 109-546-098).
(§3) The method used was exactly as described in section 3.1.4.

cynomolgus MSLN-His-Avi [2] = target: T2, cynomolgus MSLN-His-Avi (cynomolgus, single biotin (BirA) in the biotinylated form); test: SPR (Biacore), mAb^2 captured on Protein G, MSLN in solution injected
T2 construct: Monomeric, made in HEK293-6E; also called cMSLN-His-Avi; cyno MSLN-His-Avi
T2 chain: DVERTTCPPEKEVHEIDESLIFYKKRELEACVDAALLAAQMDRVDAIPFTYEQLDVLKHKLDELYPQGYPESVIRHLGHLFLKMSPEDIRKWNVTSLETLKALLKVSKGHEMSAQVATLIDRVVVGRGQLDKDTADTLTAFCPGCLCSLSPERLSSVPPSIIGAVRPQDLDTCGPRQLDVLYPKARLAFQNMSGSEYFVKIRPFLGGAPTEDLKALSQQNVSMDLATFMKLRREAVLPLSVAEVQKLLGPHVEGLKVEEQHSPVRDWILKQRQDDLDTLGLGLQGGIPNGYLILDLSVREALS

human MSLN-His-Avi [3] = target: T3, human MSLN-His-Avi (human, UniProt Q13421 296-598, single biotin (BirA) in the biotinylated form); test: as above
T3 construct: Monomeric, made in HEK293-6E; Used both immobilised and in solution; also called hMSLN-His-Avi; biotinylated hMSLN-His-Avi
T3 sequence (Q13421 other isoform, or with tags, fused parts or gaps): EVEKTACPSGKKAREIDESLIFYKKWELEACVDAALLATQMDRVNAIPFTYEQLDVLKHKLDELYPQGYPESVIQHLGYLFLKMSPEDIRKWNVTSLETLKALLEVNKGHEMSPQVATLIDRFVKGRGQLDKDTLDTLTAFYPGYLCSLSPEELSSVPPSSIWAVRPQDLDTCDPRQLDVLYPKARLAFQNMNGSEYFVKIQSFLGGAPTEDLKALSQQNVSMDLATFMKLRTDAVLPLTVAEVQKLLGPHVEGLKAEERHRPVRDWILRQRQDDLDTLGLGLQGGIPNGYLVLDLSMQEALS

human MSLN-His-Avi [4] = target: T3, human MSLN-His-Avi; test: ratio of the two SPR KD
How it was run: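 mAb² clones were tested on two SPR set-ups. In the first, human MSLN-His-Avi was amine-coupled to CM5 (~200 RU) and ~50 nM antibody was injected. In the second, clones were captured on Protein G (~100 RU) and human or cyno MSLN (1000-0.051 nM, 3-fold) was flowed in HBS-EP with 900 mM […] for 5 min association/5 min dissociation. The value is the ratio of the two KD.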

human MSLN-His-Avi [5] = target: T3, human MSLN-His-Avi; test: SPR (Biacore), MSLN immobilised, mAb^2 injected
How it was run: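 Human MSLN-His-Avi amine-coupled to CM5 chip at about 200 RU, blank reference cell subtracted. Anti-MSLN mAb² (supernatant or purified) at about 50 nM in HBS-EP+ injected 2.5 min at 30 μl/min, 2.5 min dissociation; 10 mM glycine pH 1.5 regeneration.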

cynomolgus MSLN-His-Avi [6] = target: T2, cynomolgus MSLN-His-Avi; test: SPR (see Table 4)
[7] = target: T1, cell surface human mesothelin (MSLN); test: flow cytometry, NCI-H226 cells
Protocol: as §1, §2, §3

T1 sequence (Q13421 other isoform, or with tags, fused parts or gaps limits assumed): as the sequence (Q13421 other isoform, or with tags, fused parts or gaps) above

B1: FS22-053-008-AA/FS28-024 mAb^2 (bispecific antibody, human IgG1, kappa, L234A L235A, V domains shown)
VH: EVQLLESGGGLVQPGGSLRLSCAASGFTLSYSSMSWVRQAPGKGLEWVSFITPSTGYTHYADSVKGRFTISRDNSKNTLYLQMNSLRAEDTAVYYCARRALTFDYWGQGTLVTVSS
VL: EIVLTQSPGTLSLSPGERATLSCRASQSVSSSYLAWYQQKPGQAPRLLIYGASSRATGIPDRFSGSGSGTDFTLTISRLEPEDFAVYYCQQASSYPLTFGQGTKVEIKR
notes: also called FS28-024 (in FS22-053-008-AA mAb^2 format); FS28-024 (in CD137 mAb2 format)
[1]
  EC50: 5.04 nM
  Emax (MFI): 1.02e+06 MFI
Cynomolgus MSLN-His-Avi [2]
  Kd: 240 nM
Human MSLN-His-Avi [3]
  Kd: 46.5 nM
Human MSLN-His-Avi [4]
  Ratio of KD in solution/immobilised for human MSLN-His-Avi: 119
Human MSLN-His-Avi [5]
  Kd: 0.39 nM
Cynomolgus MSLN-His-Avi [6]
  fold lower affinity for cyno MSLN than for human MSLN: ~5 fold
[7]
  EC50: 1.47 nM
  Emax (MFI): 981000 MFI
